Assays:
domain I of HSA = target: T1, domain I of HSA (human, UniProt P02768 25-221, limits assumed); experiment: SPR on HSA domains
T1 construct: domain: I; also called HSA domain I

domain III of HSA = target: T2, domain III of HSA (human, UniProt P02768 405-609, limits assumed); experiment: SPR on HSA domains
T2 construct: domain: III; also called HuSA domainIII

human serum albumin [1] = target: T3, human serum albumin (human, UniProt P02768 25-609); experiment: SPR, albumin immobilized
T3 construct: immobilized on chips or coated on plates elsewhere; also called HSA; HuSA
Description: (§1) To determine the kinetics of binding to human, rhesus, and mouse serum albumin, as well as whether binding was retained at both physiological and endosomal pHs, the respective serum albumins were immobilized on a Biacore CMS chip to a surface density of ˜1200 RU using standard NHS/EDC coupling. […] Kinetic measurements were carried out using a 3 min association and 6-10 min dissociation phase. Kinetic traces of reference-subtracted sensorgrams were fit to a 1:1 binding model using the Biaevaluation software.
(§2) In addition, binding to albumin was carried out under various pH conditions ranging from pH 5.5 to pH 7.4.

rhesus serum albumin [2] = target: T4, rhesus serum albumin (rhesus, UniProt Q28522 17-600); experiment: SPR, albumin immobilized
T4 construct: also called RhSA; Rh-SA
T4 sequence (Q28522 17-600 limits assumed): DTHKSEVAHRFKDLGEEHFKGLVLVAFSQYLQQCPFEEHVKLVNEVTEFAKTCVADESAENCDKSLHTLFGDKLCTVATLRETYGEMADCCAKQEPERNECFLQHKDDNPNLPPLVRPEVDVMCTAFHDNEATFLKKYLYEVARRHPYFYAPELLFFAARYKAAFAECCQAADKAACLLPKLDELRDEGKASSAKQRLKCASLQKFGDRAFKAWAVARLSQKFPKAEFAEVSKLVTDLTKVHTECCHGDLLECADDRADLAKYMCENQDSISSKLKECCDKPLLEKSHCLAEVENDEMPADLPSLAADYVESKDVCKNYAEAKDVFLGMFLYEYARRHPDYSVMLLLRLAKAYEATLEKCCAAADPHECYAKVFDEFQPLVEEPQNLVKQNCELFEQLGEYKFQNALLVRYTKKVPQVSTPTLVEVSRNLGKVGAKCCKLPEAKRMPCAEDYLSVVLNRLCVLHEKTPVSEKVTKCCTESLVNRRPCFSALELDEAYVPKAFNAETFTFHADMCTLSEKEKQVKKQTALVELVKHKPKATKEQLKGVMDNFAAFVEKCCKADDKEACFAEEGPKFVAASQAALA
Description: as §1, §2

mouse serum albumin [3] = target: T5, mouse serum albumin (mouse, UniProt P07724 25-608); experiment: SPR, albumin immobilized
T5 construct: also called MSA; MuSA
T5 sequence (P07724 25-608 limits assumed): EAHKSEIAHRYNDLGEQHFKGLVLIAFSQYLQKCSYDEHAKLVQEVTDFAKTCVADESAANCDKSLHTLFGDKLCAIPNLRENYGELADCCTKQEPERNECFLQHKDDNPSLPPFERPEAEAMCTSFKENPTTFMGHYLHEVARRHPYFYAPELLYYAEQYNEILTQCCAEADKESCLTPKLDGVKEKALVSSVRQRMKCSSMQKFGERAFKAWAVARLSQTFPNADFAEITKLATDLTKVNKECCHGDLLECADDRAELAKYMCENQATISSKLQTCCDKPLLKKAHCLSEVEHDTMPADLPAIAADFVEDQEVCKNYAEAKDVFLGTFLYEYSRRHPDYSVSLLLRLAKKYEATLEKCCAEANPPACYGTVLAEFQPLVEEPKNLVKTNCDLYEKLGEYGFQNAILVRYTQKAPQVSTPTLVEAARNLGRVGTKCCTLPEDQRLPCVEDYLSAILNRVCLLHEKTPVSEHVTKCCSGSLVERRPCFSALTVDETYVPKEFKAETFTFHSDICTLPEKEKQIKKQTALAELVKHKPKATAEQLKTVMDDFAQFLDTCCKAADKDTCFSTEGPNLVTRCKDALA
Description: as §1, §2

cynomolgus serum albumin = target: T6, cynomolgus serum albumin (cynomolgus, UniProt A2V9Z4 25-608); experiment: SPR, albumin immobilized;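 further: biacore CM5 surface plasmon resonance with serum albumin coupled to the chip, 3 min association then 6-10 min dissociation, rates from a 1:1 model fit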
T6 construct: also called cynoSA; CySA
T6 sequence (A2V9Z4 25-608 limits assumed): as the sequence (Q28522 17-600 limits assumed) above
Description: as §1, §2

rat serum albumin [4] = target: T7, rat serum albumin (rat, UniProt P02770 25-608); experiment: SPR, albumin immobilized;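 further: biacore CM5 surface plasmon resonance with serum albumin coupled to the chip, 3 min association then 6-10 min dissociation, rates from a 1:1 model fit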
T7 construct: also called Rat SA; RSA
T7 sequence (P02770 25-608 limits assumed): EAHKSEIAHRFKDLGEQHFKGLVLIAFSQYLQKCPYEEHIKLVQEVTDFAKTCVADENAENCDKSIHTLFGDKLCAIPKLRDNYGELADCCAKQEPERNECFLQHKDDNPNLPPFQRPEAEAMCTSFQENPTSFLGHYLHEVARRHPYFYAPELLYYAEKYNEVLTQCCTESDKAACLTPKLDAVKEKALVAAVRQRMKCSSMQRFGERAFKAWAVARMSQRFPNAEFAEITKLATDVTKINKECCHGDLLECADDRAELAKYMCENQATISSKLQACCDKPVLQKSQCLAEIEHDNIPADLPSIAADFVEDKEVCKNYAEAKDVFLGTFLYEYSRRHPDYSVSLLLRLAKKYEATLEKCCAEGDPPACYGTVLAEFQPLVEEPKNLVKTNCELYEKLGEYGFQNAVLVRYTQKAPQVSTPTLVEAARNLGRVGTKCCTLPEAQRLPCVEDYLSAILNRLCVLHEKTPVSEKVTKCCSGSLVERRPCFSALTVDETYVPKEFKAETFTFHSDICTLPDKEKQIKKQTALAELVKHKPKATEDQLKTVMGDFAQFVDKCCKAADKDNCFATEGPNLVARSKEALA
Description: as §1, §2

human serum albumin [5] = target: T3, human serum albumin; experiment: SPR, albumin immobilized; remark: listed apart in the source
Description: as §1

rhesus serum albumin [6] = target: T4, rhesus serum albumin; experiment: SPR, albumin immobilized; remark: listed apart in the source
Description: as §1

mouse serum albumin [7] = target: T5, mouse serum albumin; experiment: SPR, albumin immobilized; remark: listed apart in the source
Description: as §1

human serum albumin [8] = target: T3, human serum albumin; experiment: direct binding ELISA, albumin coated
Description: (§3) Cross-species albumin binding was determined using the ELISA method described above.

rhesus serum albumin [9] = target: T4, rhesus serum albumin; experiment: direct binding ELISA, albumin coated
Description: as §3

mouse serum albumin [10] = target: T5, mouse serum albumin; experiment: direct binding ELISA, albumin coated
Description: as §3

human serum albumin [11] = target: T3, human serum albumin; experiment: SPR, albumin immobilized, acetate pH 5.5
rhesus serum albumin [12] = target: T4, rhesus serum albumin; experiment: SPR, albumin immobilized, acetate pH 5.5
mouse serum albumin [13] = target: T5, mouse serum albumin; experiment: SPR, albumin immobilized, acetate pH 5.5
human serum albumin [14] = target: T3, human serum albumin; experiment: SPR, albumin immobilized, acetate pH 7.4
rhesus serum albumin [15] = target: T4, rhesus serum albumin; experiment: SPR, albumin immobilized, acetate pH 7.4
mouse serum albumin [16] = target: T5, mouse serum albumin; experiment: SPR, albumin immobilized, acetate pH 7.4
human serum albumin [17] = target: T3, human serum albumin; experiment: SPR, albumin immobilized, acetate pH 5.5; remark: listed apart in the source
rhesus serum albumin [18] = target: T4, rhesus serum albumin; experiment: SPR, albumin immobilized, acetate pH 5.5; remark: listed apart in the source
mouse serum albumin [19] = target: T5, mouse serum albumin; experiment: SPR, albumin immobilized, acetate pH 5.5; remark: listed apart in the source
human serum albumin [20] = target: T3, human serum albumin; experiment: SPR, albumin immobilized, acetate pH 7.4; remark: listed apart in the source
rhesus serum albumin [21] = target: T4, rhesus serum albumin; experiment: SPR, albumin immobilized, acetate pH 7.4; remark: listed apart in the source
mouse serum albumin [22] = target: T5, mouse serum albumin; experiment: SPR, albumin immobilized, acetate pH 7.4; remark: listed apart in the source
human serum albumin [23] = target: T3, human serum albumin; experiment: SPR, albumin immobilized, Adnectin 250 nM
rhesus serum albumin [24] = target: T4, rhesus serum albumin; experiment: SPR, albumin immobilized, Adnectin 250 nM
mouse serum albumin [25] = target: T5, mouse serum albumin; experiment: SPR, albumin immobilized, Adnectin 250 nM
rat serum albumin [26] = target: T7, rat serum albumin; experiment: SPR, albumin immobilized, Adnectin 250 nM
human serum albumin [27] = target: T3, human serum albumin; experiment: direct binding ELISA on coated HSA, mono-Adnectin (column HSA EC50 (nM))

binding result (domain I of HSA): no binding | binding result (domain III of HSA): no binding | Kd (human serum albumin [1]): 3.2 nM | koff (human serum albumin [1]): 0.000185 s⁻¹ | kon (human serum albumin [1]): 61000 M⁻¹ s⁻¹ | Kd (rhesus serum albumin [2]): 3.4 nM | koff (rhesus serum albumin [2]): 0.00024 s⁻¹ | kon (rhesus serum albumin [2]): 73900 M⁻¹ s⁻¹ | Kd (mouse serum albumin [3]): 2.4 nM | koff (mouse serum albumin [3]): 0.000531 s⁻¹ | kon (mouse serum albumin [3]): 219000 M⁻¹ s⁻¹ | Kd (cynomolgus serum albumin): 3.2 nM | koff (cynomolgus serum albumin): 0.000229 s⁻¹ | kon (cynomolgus serum albumin): 73700 M⁻¹ s⁻¹ | Kd (rat serum albumin [4]): 12.8 nM | koff (rat serum albumin [4]): 0.00126 s⁻¹ | kon (rat serum albumin [4]): 99700 M⁻¹ s⁻¹ | Kd (human serum albumin [5]): 12.3 nM | koff (human serum albumin [5]): 0.000213 s⁻¹ | kon (human serum albumin [5]): 17400 M⁻¹ s⁻¹ | Kd (rhesus serum albumin [6]): 14.5 nM | koff (rhesus serum albumin [6]): 0.000283 s⁻¹ | kon (rhesus serum albumin [6]): 19500 M⁻¹ s⁻¹ | Kd (mouse serum albumin [7]): 3.6 nM | koff (mouse serum albumin [7]): 0.000242 s⁻¹ | kon (mouse serum albumin [7]): 68400 M⁻¹ s⁻¹ | EC50 (human serum albumin [8]): 14.5 nM | EC50 (rhesus serum albumin [9]): 10.5 nM | EC50 (mouse serum albumin [10]): 2.8 nM | Kd (human serum albumin [11]): 4.64 nM | koff (human serum albumin [11]): 0.000326 s⁻¹ | kon (human serum albumin [11]): 70400 M⁻¹ s⁻¹ | Kd (rhesus serum albumin [12]): 12 nM | koff (rhesus serum albumin [12]): 0.000584 s⁻¹ | kon (rhesus serum albumin [12]): 48500 M⁻¹ s⁻¹ | Kd (mouse serum albumin [13]): 14.9 nM | koff (mouse serum albumin [13]): 0.00125 s⁻¹ | kon (mouse serum albumin [13]): 84000 M⁻¹ s⁻¹ | Kd (human serum albumin [14]): 9.74 nM | koff (human serum albumin [14]): 0.000272 s⁻¹ | kon (human serum albumin [14]): 28000 M⁻¹ s⁻¹ | Kd (rhesus serum albumin [15]): 11.8 nM | koff (rhesus serum albumin [15]): 0.000328 s⁻¹ | kon (rhesus serum albumin [15]): 27900 M⁻¹ s⁻¹ | Kd (mouse serum albumin [16]): 3.48 nM | koff (mouse serum albumin [16]): 0.000268 s⁻¹ | kon (mouse serum albumin [16]): 76800 M⁻¹ s⁻¹ | Kd (human serum albumin [17]): 4.1 nM | koff (human serum albumin [17]): 0.000287 s⁻¹ | kon (human serum albumin [17]): 70700 M⁻¹ s⁻¹ | Kd (rhesus serum albumin [18]): 11.2 nM | koff (rhesus serum albumin [18]): 0.000503 s⁻¹ | kon (rhesus serum albumin [18]): 44900 M⁻¹ s⁻¹ | Kd (mouse serum albumin [19]): 14.6 nM | koff (mouse serum albumin [19]): 0.00113 s⁻¹ | kon (mouse serum albumin [19]): 77000 M⁻¹ s⁻¹ | Kd (human serum albumin [20]): 9.6 nM | koff (human serum albumin [20]): 0.000243 s⁻¹ | kon (human serum albumin [20]): 25400 M⁻¹ s⁻¹ | Kd (rhesus serum albumin [21]): 10.4 nM | koff (rhesus serum albumin [21]): 0.000297 s⁻¹ | kon (rhesus serum albumin [21]): 28600 M⁻¹ s⁻¹ | Kd (mouse serum albumin [22]): 11.2 nM | koff (mouse serum albumin [22]): 0.000503 s⁻¹ | koff (human serum albumin [23]): 0.000169 s⁻¹ | koff (rhesus serum albumin [24]): 0.000219 s⁻¹ | koff (mouse serum albumin [25]): 0.000401 s⁻¹ | koff (rat serum albumin [26]): 0.000767 s⁻¹ | EC50 (human serum albumin [27]): 20 nM
B1: PKE2 Adnectin 2629_E06 (designed binder)
chain: MGVSDVPRDLEVVAATPTSLLISWDAPAVTVRYYRITYGREVQKYSDLGPLYIYQEFTVPGSKSTATISGLKPGVDYTITVYAVTGSGESPASSKPISINYRTEIDKPSQHHHHHH
notes: 10Fn3 domain with modified CD loop; the entry includes the His6 tail; also called ADX_2629_E06

Reference: patent US20200048328A1 (Bristol-Myers Squibb, published 2020)
